Results on two molecules are retold here after paper PMC7299284, “Studies in humanized mice and convalescent humans yield a SARS-CoV-2 antibody cocktail” (Science (New York, N.y.), 2020).

In this experiment the target is T1, SARS-CoV-2 spike RBD (as in the cryo-EM complex with REGN10933 and REGN10987 Fabs) (SARS-CoV-2, UniProt P0DTC2).
T1 construct: also called SARS-CoV-2 RBD
The experiment can be described thus: cryo-EM structure; single-particle cryo-EM of SARS-CoV-2 spike RBD bound to Fab fragments of REGN10933 and REGN10987, nominal resolution 3.9 Å. The note with it: both partners purified.

B1: Fab fragment of REGN10987 (Fab, V domains shown)
VH: QVQLVESGGGVVQPGRSLRLSCAASGFTFSNYAMYWVRQAPGKGLEWVAVISYDGSNKYYADSVKGRFTISRDNSKNTLYLQMNSLRTEDTAVYYCASGSDYGDYLLVYWGQGTLVTVSS
VL: QSALTQPASVSGSPGQSITISCTGTSSDVGGYNYVSWYQQHPGKAPKLMIYDVSKRPSGVSNRFSGSKSGNTASLTISGLQSEDEADYYCNSLTSISTWVFGGGTKLTVL
notes: also called REGN10987 Fab
Turning to B1, the binding result was “binds”.

B2: Fab fragment of REGN10933 (Fab, V domains shown)
VH: QVQLVESGGGLVKPGGSLRLSCAASGFTFSDYYMSWIRQAPGKGLEWVSYITYSGSTIYYADSVKGRFTISRDNAKSSLYLQMNSLRAEDTAVYYCARDRGTTMVPFDYWGQGTLVTVSS
VL: DIQMTQSPSSLSASVGDRVTITCQASQDITNYLNWYQQKPGKAPKLLIYAASNLETGVPSRFSGSGSGTDFTFTISGLQPEDIATYYCQQYDNLPLTFGGGTKVEIK
notes: also called REGN10933 Fab
For B2, the binding result is recorded as “binds”.
